We go through two molecules from US20260022364A1, “ERT2 MUTANTS, INDUCIBLE CELL DEATH SYSTEMS, AND USES THEREOF” (Senti Biosciences, Inc., priority 2023, published 2026).

Common to all, as to assay type: cell-based
The test system of assay [1] is dimerization of two modified ER-LBDs. Put plainly: Transcriptional reporter assay for dimerization activity. The following applies: data not shown. (In general: A reporter such as luciferase makes a cellular process visible.)
The next assay has as its system NK cells. Briefly: Validation of ERT2 mutants with mCherry reporter in NK cells. The following applies: primary NK cells. The procedure:
After 10 days of feeder cell activation, NK cells were co-transduced with ERT2 mutant virus and reporter SB01066 virus (Experimental Set-up 1). On Day 2 after transduction, transduced NK cells were treated with endoxifen or 4-OHT at a range of concentrations of 0 nM, 0.01 nM, 0.1 nM, 1 nM, and 10 nM. On Day 4, cells were checked for mCherry expression by flow cytometry.

In assay [2] the test system is HEK293T cells. Put plainly: Time course of ERT2 mutant safety switch activity in HEK cells. The procedure:
Twenty-four hours later, ˜3k transduced cells were plated into each well of a 96w plate and cultured in 100 μL of drug-free growth media (DMEM+10% FBS, 1% p-s, 1% Glutamax).
Killing efficiency was calculated by taking the average mCherry area quantified by the incucyte in the drug treated sample divided by the mCherry area quantified in the ND conditions of the same transduced population and subtracting that fraction from 1. 95% KE was defined as complete killing by previous studies with this same mCherry reporter being treated with Puromycin, a toxic drug that results in complete killing of HEK293T cells within 48 hours of application.

The subject of a further assay is primary T cells. Put plainly: Killing assay of safety kill switch in transduced primary T cells. The procedure:
Primary T cells isolated from a donor were thawed and stimulated with Dynabeads for 24 hours. Next, ERT2*mut81-Casp9-IRES-RFP (SB07351, prepared as lentivirus) was transduced into the T cells. Two days post transduction, cell media were replaced with T Cell media containing IL-2 to promote expansion. 1 week post transduction, cells were quantified for transduction efficiency (Safety kill switch transduction was tracked by expression of RFP tag) by flow cytometry and then loaded into incucyte for quantification of killing efficiency.
• D0-D1: Expansion of cells in drug free T cell media (with IL-2) • D1-onward: Drug free T cell media (with IL-2) was exchanged with media containing indicated drug conditions (as well as IL-2) • Killing efficiency was calculated by the following formula:
1−(RFP expression of cells in drug treated conditions)/(RFP expression of transduced cells in the No Drug condition)

For assay [3], the system named is HEK293T cells. Briefly: Suicide-switch assay, killing efficiency by incucyte. Conditions: for killing efficiency: 48 hours. The procedure: A 24-well dish was seeded with 25,000 Lent-X HEK293T cells (Takara, Catalog #: 632180). The next day, the cells were transduced with 25,000 pg of virus for constructs SB07351-SB07354: ERT2mut-casp9 constructs tagged with mCherry to track successfully transduced cells in a population. The constructs each take the form ERT2*mut-Casp9-IRES-RFP (SB07351=mut81; SB07352=mut88; SB07353=mut63; SB07354=mut41). The next day, transduced cells were split into a 96-well plate with ˜5,000 cells in each well and loaded into an incucyte to quantify cell expansion via images every 2 hours detecting mCherry expression. Media was exchanged 24 hours later with new media with indicated concentration of 4-OHT or no drug added. Cells continued to be imaged by the incucyte every 2 hours for 48 hours post exchange of media.
Cell death was quantified via detection of suicide-switch linked mCherry expression using the following formula:
Killing efficiency=100−((mCherry expression in drug treated population)/(mCherry expression in ND population)) [NOTE: mCherry background prevents 100% KE from being calculated; >95% killing efficiency is considered complete killing in this assay]

B1: SB06136: ZF10-1_p65_ERT2 mutant; L384M/L391V/N413D/M421L/S463P/H524L (protein)
chain: AGDMRAANLWPSPLMIKRSKKNSLALSLTADQMVSALLDAEPPILYSEYDPTRPFSEASMMGLLTNLADRELVHMINWAKRVPGFVDLTLHDQVHLLECAWMEILMIGVVWRSMEHPVKLLFAPNLLLDRDQGKCVEGLVEIFDMLLATSSRFRMMNLQGEEFVCLKSIILLNSGVYTFLPSTLKSLEEKDHIHRVLDKITDTLIHLMAKAGLTLQQQHQRLAQLLLILSHIRHMSNKGMELLYSMKCKNVVPLYDLLLEAADAHRLHAPTSRGGASVEETDQSHLATAGSTSSHSLQKYYITGEAEGFPAT
As for B1, the “dimerization of two modified ER-LBDs to 4-OHT” value in assay [1] is “did not directly alter dimerization”. Moreover, in the assay with NK cells, the “4-OHT concentration at which variant was sensitive (mCherry)” value was 0.1 nM and the “endoxifen concentration at which variant was sensitive (mCherry)” value was determined as 0.1 nM.

B2: SB07351: suicide-switch construct ERT2*mut-Casp9-IRES-RFP with mut81 (protein)
chain: AGDMRAANLWPSPLMIKRSKKNSLALSLTADQMVSALLDAEPPILYSEYDPTRPFSEASMMGLLTNLADRELVHMINWAKRVPGFVDLTLHDQVHLLECAWMEILMIGVVWRSMEHPVKLLFAPNLLLDRDQGKCVEGLVEIFDMLLATSSRFRMMNLQGEEFVCLKSIILLNSGVYTFLPSTLKSLEEKDHIHRVLDKITDTLIHLMAKAGLTLQQQHQRLAQLLLILSHIRHMSNKGMELLYSMKCKNVVPLYDLLLEAADAHRLHAPTSRGGASVEETDQSHLATAGSTSSHSLQKYYITGEAEGFPAT
With B2, the “killing efficiency and rate compared to the WT ERT2 safety switch” value in the assay with HEK293T cells [2] (0.25 nM endoxifen and 0.04 nM 4-OHT, 2.5 nM endoxifen+0.4 nM 4-OHT) is “greater killing efficiency, and at a faster rate”. Besides, the sensitivity to Estradiol result in the assay on HEK293T cells [2] (2.5 nM estradiol, long exposure times) was “modest activity at late time points”; in the assay with primary T cells (day 5, Estradiol 2.2 pM) it was “insensitivity”; in the assay on primary T cells (over time, 2.2 pM Estradiol), “insensitive”. Moreover, the “time to complete killing” value with primary T cells (2.5 nM Endoxifen & 0.4 nM 4-OHT) was no more than 48 h. In addition, the “cell killing without inducer” value with primary T cells (absence of the small molecule inducer cocktail) is “did not induce cell killing”. Moreover, the killing efficiency result in the assay with primary T cells (day 5, endoxifen 1 pM and higher) is “>= 95%”; with primary T cells (day 5, endoxifen as low as 0.001 pM) it was “Strong killing efficiency”; in the assay with HEK293T cells [3] (0.001 pM of 4-OHT), roughly 80%; with HEK293T cells [3] (down to 0.01 pM of 4-OHT), greater than 95%. Moreover, the “concentration of efficient killing, fold lower than the Ctrough of 4-OHT in humans” value in the assay on HEK293T cells [3] (humans taking FDA approved daily dose of Tamoxifen) is 400 ×.
